Experimental data as given in paper PMC12809912.
Where “and” joins values, the source holds several entries; their conditions need not be identical. Equal entries are not always repeated.

T1: synthetic DEFA5 peptide residues 54-66 (…) (human)
T1 sequence (peptide): LRTSGSQARATCY

T2: synthetic DEFA5 peptide residues 52-66 (…) (human)
T2 sequence (peptide): SALRTSGSQARATCY


What was measured:
[1] = target: T1, synthetic DEFA5 peptide residues 54-66 (…) (human); assay: SPR; synthetic peptides 54-66 (for 1A8) and 52-66 (for 4F5); who was immobilised is not told (Fig. S5)
[2] = target: recombinant His-tagged human alpha-defensin 5 (DEFA5) construct, residues 23-94 behind a soluble fusion partner (human); assay: ELISA; indirect ELISA: recombinant DEFA5 coated at 100 ng/mL in carbonate-bicarbonate buffer pH 9.6, antibodies 250-3.9 nM 1 h at room temperature; one-site specific binding fit; two experiments
[3] = target: T2, synthetic DEFA5 peptide residues 52-66 (…) (human); assay: SPR; synthetic peptides 54-66 (for 1A8) and 52-66 (for 4F5); who was immobilised is not told (Fig. S5)
[4] = target: mouse monoclonal antibody clone 1A8 (anti-DEFA5); assay: indirect ELISA; conditions: chain shown with the change;; parent: est. 2.6; read off a plot
[5] = target: mouse monoclonal antibody clone 4F5 (anti-DEFA5); assay: indirect ELISA; conditions: chain shown with the change;; parent: est. 2.2; read off a plot

Chain of recombinant His-tagged human alpha-defensin 5 (DEFA5) construct, residues 23-94 behind a soluble fusion partner (human) (Q01523 23-94): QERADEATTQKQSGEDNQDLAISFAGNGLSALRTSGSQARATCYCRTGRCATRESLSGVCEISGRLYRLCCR

Kd [1] [µM] | Kd [2] | Kd [3] [µM] | response [4] [OD450nm] | response [5] [OD450nm] | Binder
303 | 0.0421 µM and 0.0455 µM |  |  |  | mouse monoclonal antibody clone 1A8 (anti-DEFA5) (antibody, V domains shown) VH: QVQLQQSGAELVRPGASVKMSCKALGYTFFDYEMHWMKQTPVYGLEWIGAIHPGSGDTAYNQKFKGKATLTADKSSNTAYMELSSLTSEDSAVYYCTREGTVVAPFDYWGQGTTLTVSS VL: DVLMTQTPLSLPVSLGDQASISCRSSQSIVHSNGNTYLEWYLQKPGQSPKLLINKVSNRFSGVPDRFSGSGSGTDFTLKISRVEAEDLGVYYCFQGSYVPYTFGGGTKLEIK
 | 0.0534 µM and 0.0566 µM | 4800 |  |  | mouse monoclonal antibody clone 4F5 (anti-DEFA5) (antibody, V domains shown) VH: QVQLQQSGAELVRPGASVKMSCKALGYTFFDYEMHWMKQTPVYGLEWIGAIHPGSGDTAYNQKFKGKATLTADKSSNTAYMELSSLTSEDSAVYYCTREGTVVAPFDYWGQGTTLTVSS VL: DVLMTQTPLSLPVSLGDQASISCRSSQSIVHSNGNTYLEWYLQKPGQSPKLLINKVSNRFSGVPDRFSGSGSGTDFTLKISRVEAEDLGVYYCFQGSYVPYTFGGGTKLEIK
 |  |  | 2.6 | 2.3 | RATCYCRTGRCATR [peptide No. 57 of the overlapping library, DEFA5 amino acids 61-75 (…) A1del]
